Assay results published in PMC11358013, “FANCD2–FANCI surveys DNA and recognizes double- to single-stranded junctions”.

B1: ss-dsDNA J1/J2 (mixed)
DNA 1: TTTTTTTTTTTTTTTTTTTTTTTTTTTTTTATCGATGTCTCTAGACAGCTGCTCAGGATTGATCTGTAATTTTTTTTTTTTTTTTTTTTTTTTTTTTTT
DNA 2: ATCCTGAGCAGCTGTCTAGAGACATCGAT
B2: 44 bp dsDNA P1/P7 (FAM) (dsDNA)
DNA 1: ATCGATGTCTCTAGACAGCTGCTCAGGATTGATCTGTAATGGCC
DNA 2: GGCCATTACAGATCAATCCTGAGCAGCTGTCTAGAGACATCGAT

Columns and labels:
FANCD2 WT;FANCI WT [1] = target: T1, FANCD2 WT;FANCI WT (Gallus gallus;Gallus gallus, UniProt Q68Y81;B0I564 1-1439;1-1338, |); test: cryo-EM; stalled state; 24 bp duplex modelled; EMSA: 50 mM HEPES pH 8.0, 75 mM NaCl, 1 mM TCEP, 20 nM DNA, 20-22 C; switchSENSE: 20 mM HEPES pH 8.0, 75 mM NaCl, 1 mM TCEP, 25 C; cryo-EM and single-molecule:; settings: protein: recombinant;recombinant; copies: 1;1; 29 bp duplex; strand 1 has 5' ssDNA 30 nt and 3' ssDNA 40 nt
FANCD2 WT;FANCI WT [2] = target: T1, FANCD2 WT;FANCI WT; test: EMSA; unlabelled D2-I; EMSA: 50 mM HEPES pH 8.0, 75 mM NaCl, 1 mM TCEP, 20 nM DNA, 20-22 C; switchSENSE: 20 mM HEPES pH 8.0, 75 mM NaCl, 1 mM TCEP, 25 C; cryo-EM and single-molecule:; settings: protein: recombinant;recombinant; copies: 1;1; label: 3' FAM on P1; blunt
[3] = target: FANCD2-ybbR-Cy3;FANCI-ybbR-Cy5 (Gallus gallus;Gallus gallus, UniProt Q68Y81;B0I564 1-1439;1-1338, |); test: EMSA; double-labelled D2-I, affinity comparable to unlabelled; EMSA: 50 mM HEPES pH 8.0, 75 mM NaCl, 1 mM TCEP, 20 nM DNA, 20-22 C; switchSENSE: 20 mM HEPES pH 8.0, 75 mM NaCl, 1 mM TCEP, 25 C; cryo-EM and single-molecule:; settings: protein: recombinant;recombinant; copies: 1;1; label: 3' FAM on P1; blunt
Sequence of FANCD2-ybbR-Cy3;FANCI-ybbR-Cy5 (Q68Y81 whole entry, chain 1 of 2): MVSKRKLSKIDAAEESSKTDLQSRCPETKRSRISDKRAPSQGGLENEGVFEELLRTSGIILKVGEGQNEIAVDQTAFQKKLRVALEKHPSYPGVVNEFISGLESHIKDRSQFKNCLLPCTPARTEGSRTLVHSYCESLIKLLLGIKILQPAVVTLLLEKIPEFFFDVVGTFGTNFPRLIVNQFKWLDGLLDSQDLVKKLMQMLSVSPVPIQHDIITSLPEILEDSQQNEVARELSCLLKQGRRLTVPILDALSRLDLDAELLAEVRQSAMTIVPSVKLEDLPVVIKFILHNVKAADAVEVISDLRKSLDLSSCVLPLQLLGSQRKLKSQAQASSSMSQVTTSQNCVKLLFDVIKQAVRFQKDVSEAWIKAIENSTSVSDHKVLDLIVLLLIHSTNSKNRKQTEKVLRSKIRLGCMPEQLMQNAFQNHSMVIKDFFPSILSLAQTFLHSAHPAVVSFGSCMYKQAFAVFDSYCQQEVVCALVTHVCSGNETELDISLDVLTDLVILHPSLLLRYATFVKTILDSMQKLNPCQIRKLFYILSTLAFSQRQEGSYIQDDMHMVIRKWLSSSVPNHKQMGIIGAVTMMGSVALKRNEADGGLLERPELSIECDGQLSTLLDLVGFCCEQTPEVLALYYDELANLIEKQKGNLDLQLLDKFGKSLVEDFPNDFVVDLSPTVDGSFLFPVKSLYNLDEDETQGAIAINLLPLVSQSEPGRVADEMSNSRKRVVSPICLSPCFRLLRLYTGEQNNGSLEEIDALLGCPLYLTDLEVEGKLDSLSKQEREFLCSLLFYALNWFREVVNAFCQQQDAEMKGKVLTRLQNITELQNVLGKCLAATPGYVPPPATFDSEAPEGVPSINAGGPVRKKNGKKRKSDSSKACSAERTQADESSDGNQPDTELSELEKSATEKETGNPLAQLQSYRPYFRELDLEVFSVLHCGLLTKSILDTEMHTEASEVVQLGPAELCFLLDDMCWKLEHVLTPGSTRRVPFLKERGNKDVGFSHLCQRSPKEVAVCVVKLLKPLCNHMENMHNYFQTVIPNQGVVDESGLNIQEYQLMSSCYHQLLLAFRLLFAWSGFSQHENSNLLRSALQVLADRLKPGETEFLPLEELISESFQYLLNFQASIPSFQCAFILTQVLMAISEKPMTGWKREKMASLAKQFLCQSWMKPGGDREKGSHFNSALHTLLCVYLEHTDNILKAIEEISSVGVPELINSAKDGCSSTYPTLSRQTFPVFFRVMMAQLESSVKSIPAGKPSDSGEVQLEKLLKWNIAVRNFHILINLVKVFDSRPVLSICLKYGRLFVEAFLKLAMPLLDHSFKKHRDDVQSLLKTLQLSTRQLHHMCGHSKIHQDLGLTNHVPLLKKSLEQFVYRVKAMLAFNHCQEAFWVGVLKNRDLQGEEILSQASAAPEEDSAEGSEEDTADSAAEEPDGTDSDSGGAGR
Sequence of FANCD2-ybbR-Cy3;FANCI-ybbR-Cy5 (B0I564 whole entry, chain 2 of 2): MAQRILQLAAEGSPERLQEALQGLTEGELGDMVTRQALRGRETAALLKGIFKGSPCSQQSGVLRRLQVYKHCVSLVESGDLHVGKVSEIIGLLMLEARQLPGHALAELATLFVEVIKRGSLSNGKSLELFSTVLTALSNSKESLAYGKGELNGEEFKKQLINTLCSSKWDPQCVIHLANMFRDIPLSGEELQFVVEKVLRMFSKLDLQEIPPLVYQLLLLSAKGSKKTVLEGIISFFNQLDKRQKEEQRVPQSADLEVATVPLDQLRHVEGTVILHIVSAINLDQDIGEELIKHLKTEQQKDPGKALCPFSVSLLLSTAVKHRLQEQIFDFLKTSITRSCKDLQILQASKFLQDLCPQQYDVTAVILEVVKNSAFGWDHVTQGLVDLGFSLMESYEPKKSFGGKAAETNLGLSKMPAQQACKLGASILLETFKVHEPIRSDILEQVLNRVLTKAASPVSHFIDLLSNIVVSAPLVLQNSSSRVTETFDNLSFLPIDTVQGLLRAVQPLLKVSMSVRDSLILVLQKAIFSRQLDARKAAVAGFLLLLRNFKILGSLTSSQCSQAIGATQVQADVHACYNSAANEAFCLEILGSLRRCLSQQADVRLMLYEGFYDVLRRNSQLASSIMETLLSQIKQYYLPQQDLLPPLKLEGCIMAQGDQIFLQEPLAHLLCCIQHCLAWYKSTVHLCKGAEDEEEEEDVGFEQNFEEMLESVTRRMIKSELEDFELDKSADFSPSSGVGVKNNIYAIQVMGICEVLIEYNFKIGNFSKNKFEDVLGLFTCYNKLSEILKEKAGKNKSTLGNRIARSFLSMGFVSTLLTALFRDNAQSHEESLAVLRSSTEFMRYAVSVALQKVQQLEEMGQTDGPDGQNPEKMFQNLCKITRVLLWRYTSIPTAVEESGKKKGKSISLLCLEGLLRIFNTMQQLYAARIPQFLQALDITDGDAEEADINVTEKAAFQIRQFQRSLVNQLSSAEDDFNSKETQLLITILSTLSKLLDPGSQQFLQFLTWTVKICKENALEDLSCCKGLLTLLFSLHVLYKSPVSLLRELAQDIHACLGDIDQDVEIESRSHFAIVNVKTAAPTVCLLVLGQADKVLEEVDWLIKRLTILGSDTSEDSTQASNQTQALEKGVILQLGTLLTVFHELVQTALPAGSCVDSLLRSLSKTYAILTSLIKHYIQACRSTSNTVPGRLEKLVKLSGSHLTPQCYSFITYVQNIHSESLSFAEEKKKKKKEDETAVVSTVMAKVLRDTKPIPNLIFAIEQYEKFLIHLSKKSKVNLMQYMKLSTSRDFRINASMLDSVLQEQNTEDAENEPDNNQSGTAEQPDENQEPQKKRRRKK

T1 sequence (Q68Y81 whole entry, chain 1 of 2): as the sequence (Q68Y81 whole entry, chain 1 of 2) above
T1 sequence (B0I564 whole entry, chain 2 of 2): as the sequence (B0I564 whole entry, chain 2 of 2) above

Binder	binding result (FANCD2 WT;FANCI WT [1])	binding result (FANCD2 WT;FANCI WT [2])	binding result [3]
B1	binds	–	–
B2	–	binds	binds
